Reference: patent CN114790245A

Target: 血浆激肽释放酶(plasma kallikrein,PK) (human) (UniProt P03952)
Assay: cell-based or functional assay

UniProt P03952, sequence (P03952 20-638 limits assumed): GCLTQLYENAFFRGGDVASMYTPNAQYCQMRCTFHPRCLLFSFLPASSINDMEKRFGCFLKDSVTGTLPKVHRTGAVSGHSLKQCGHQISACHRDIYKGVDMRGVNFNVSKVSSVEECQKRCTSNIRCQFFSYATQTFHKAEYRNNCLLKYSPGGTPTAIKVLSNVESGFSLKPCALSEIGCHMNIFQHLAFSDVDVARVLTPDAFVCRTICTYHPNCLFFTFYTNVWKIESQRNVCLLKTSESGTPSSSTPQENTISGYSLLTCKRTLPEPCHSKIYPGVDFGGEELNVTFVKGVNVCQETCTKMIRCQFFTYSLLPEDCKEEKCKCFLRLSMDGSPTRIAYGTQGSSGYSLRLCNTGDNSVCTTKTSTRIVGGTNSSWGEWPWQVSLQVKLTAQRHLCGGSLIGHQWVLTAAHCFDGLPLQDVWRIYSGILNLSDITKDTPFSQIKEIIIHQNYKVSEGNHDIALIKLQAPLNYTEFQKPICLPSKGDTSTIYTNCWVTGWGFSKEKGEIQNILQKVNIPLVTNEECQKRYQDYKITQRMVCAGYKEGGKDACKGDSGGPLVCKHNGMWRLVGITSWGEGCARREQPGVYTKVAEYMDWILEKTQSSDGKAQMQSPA

- IC50(nM), PK activity in human plasma activated with Factor XIIa (H-Pro-Phe-Arg-AMC): 1.17 nM
- IC50(nM), PK enzyme activity on H-Pro-Phe-Arg-AMC (fluorescence): 0.99 nM
Substance: MHL(Lanadelumab) (antibody)
